Data on 18 molecules can be found in patent US20240209104A1 (SHANGHAI ACEMAB, published 2024).

In experiment [1] the target is T1, hOX40-EC-His (human, UniProt P43489 29-214).
T1 construct: extracellular domain; bought protein; also called recombinant human OX40 antigen protein; human OX40 extracellular segment antigen; not shown: 6 His label
T1 sequence (looked up): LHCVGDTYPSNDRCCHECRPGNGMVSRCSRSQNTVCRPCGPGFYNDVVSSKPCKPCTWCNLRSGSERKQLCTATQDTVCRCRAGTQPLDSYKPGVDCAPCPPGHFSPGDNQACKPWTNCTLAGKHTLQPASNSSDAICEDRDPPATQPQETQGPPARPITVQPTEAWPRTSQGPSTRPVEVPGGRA
Description: ELISA, supernatant stoste, coated OX40 (CK60). (ELISA stands for enzyme-linked immunosorbent assay.)

Experiment [2] addresses T1, hOX40-EC-His. Description: ELISA, supernatant diluted 100 times, coated OX40 (CK60).
Experiment [3] deals with T2, OX40 on OX40 over-expressed cells (UniProt P43489 29-277).
T2 construct: whole, on cells; human implied; also called OX40 expressed on the surface of OX40 expressing cell
T2 sequence (looked up): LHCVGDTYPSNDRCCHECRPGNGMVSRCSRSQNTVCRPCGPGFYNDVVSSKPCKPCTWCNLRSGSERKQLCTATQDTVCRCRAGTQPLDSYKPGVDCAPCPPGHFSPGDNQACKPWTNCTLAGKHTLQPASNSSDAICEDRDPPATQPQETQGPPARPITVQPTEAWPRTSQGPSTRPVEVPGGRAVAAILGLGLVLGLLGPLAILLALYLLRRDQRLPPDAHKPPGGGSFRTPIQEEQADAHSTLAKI
In words: flow cytometry, supernatant on OX40 over-expressed cells. As to the method: After collecting OX40 over-expressed cells by 200G centrifugation, wash them with PBS containing 3% FCS, and then resuspend them in 2.5 ml of PBS containing 3% FCS. […] Finally, the cells were resuspended in […] of PBS containing 3% FCS for detection by flow cytometry.

Experiment [4] concerns the target T1, hOX40-EC-His. In words: ELISA, supernatant 1:100, coated hOX40-EC-His.

Substitutions are numbered along the chain they refer to.

B1: 29A9-5 (antibody, V domains shown)
VH: QVQLQESGPGLVKPSGTLSLTCAVFGDSISSSYWWSWVRQPPGKGLEWIGEIYHSGSTHYNPSLKSRVTISVDKSKNHLSLKLISVTDADTAVYYCAGEDTGWPFDFWGQGTLVTVSS
VL: not shown
notes: hybridoma antibody, tested as culture supernatant
Regarding B1, the “450 nm light absorption” value with hOX40-EC-His [1] is 1.93 OD450; in the experiment with hOX40-EC-His [2] it was 0.878 OD450. The “Y586 channel PE fluorescence value” in experiment [3] stood at 221000.

B2: 21F3-11 (antibody, V domains shown)
VH: QVQLQESGPGLVKPSGTLSLTCAVSGGSISSSNWWSWVRQPPGKGLEWIGEIYHGGSTNYNPSLKSRITISVDKSKNQFSLKLSSVTAADTAMYYCATLPGYSSGWFDSWGQGTLVTVSS
VL: EIVLMQSPGTLSLSPGERATLSCRASQSVSSSYLAWYQQKPGQAPSLLIYGASNRASGIPDRFSGSGSGTDFTLTITRLEPEDFAVYYCQQYGSSPLTFGGGTRVEIKR
notes: as for B1
Take B2: the “450 nm light absorption” value with hOX40-EC-His [1] was determined as 2.58 OD450; in the experiment with hOX40-EC-His [2], 2.61 OD450. In addition, the “IgG ELISA (1:100)” value with hOX40-EC-His [4] was 1.9 OD650. The “Y586 channel PE fluorescence value” in experiment [3] came out at 171000.

B3: 20D2-12 (antibody, V domains shown)
VH: QVQLVESGGGLVKPGGSLRLSCAASGFTFSDYYMSWIRQAPGRGLEWISYISGSDSTIYYEDSVMGRFTISRDNAKNSLYLQMNSLRAEDTAVYYCARDRDVYGYSGYGYFDYWGQGTLVTVSS
VL: B2 VL with M5T, S32R, S46R, S57T, I59M, T77S, L97I, G101Q, V105L
notes: as for B1
As for B3, the “450 nm light absorption” value in the experiment with hOX40-EC-His [1] amounted to 3.81 OD450; in the experiment with hOX40-EC-His [2], 2.32 OD450. In addition, in experiment [3], the “Y586 channel PE fluorescence value” worked out at 540000.

B4: 24A12-12 (antibody, V domains shown)
VH: QVQLQESGPGLVKPAGTLSLTCAVSGGSISSSNWWNWVRQPPGKGLEWIGEIYHSGSTNYNPSLKSRVTISVDTSKNQFSLKLTSVTAADTAVYYCARTGPTVTTDYWGQGTLVTVSS
VL: B2 VL with M5T, S46R, N54Y, S57T, I59M, D61E, T77S, V86I, S94R, R104K
notes: as for B1
For the molecule B4, the “450 nm light absorption” value was found to be 2.81 OD450 with hOX40-EC-His [1] and 2.8 OD450 with hOX40-EC-His [2]. Besides, the “Y586 channel PE fluorescence value” in experiment [3] stood at 343000.

B5: 28E3-4 (antibody, V domains shown)
VH: QVQLQESGPGLVKPSGTLSLTCAVSGGSISRSNWWTWVRQSPGKGLEWIGEIYHSGNTNYNPSLKSRVTISLDKSKNQFSLKLSSVTAADTAVYYCASSGSLYMDVWGKGTTVTVSS
VL: DIQMTQSPSSLSASVGDRVTISCRASQSTSSYLNWYQQKPGKAPRLLIYGASSLQSGVPSRFSGSGSGTDFILTISSLQPEDFATYYCQQSYSIPITFGQGTRLEIKR
notes: as for B1
Consider B5, for which the “450 nm light absorption” value came out at 2.27 OD450 in the experiment with hOX40-EC-His [1] and 2.26 OD450 with hOX40-EC-His [2]. Besides, the “IgG ELISA (1:100)” value with hOX40-EC-His [4] worked out at 2.1 OD650. Moreover, the “Y586 channel PE fluorescence value” in experiment [3] came out at 195000.

B6: 29B8-3 (antibody, V domains shown)
VH: QVQLQESGPGLVKPSGTLSLTCAVSGVSISSSNWWSWVRQPPGKGLEWIGEIYHSGNTNYNPSLKSRVTISVDKSKNQFSLKLSSVTAADTAVYYCAETSTITTNYWGQGTLVTVSS
VL: B5 VL with S22T, S28T, T29I, R45K, G50A, G66E, I72T, S91T
notes: as for B1
Turning to B6, the “450 nm light absorption” value with hOX40-EC-His [1] turned out to be 2.46 OD450; with hOX40-EC-His [2], 2.36 OD450. Also, the “Y586 channel PE fluorescence value” in experiment [3] came to 388000.

B7: 4D9-12 (antibody, V domains shown)
VH: B5 VH with R31S, T36S, S41P, N59I
VL: B5 VL with S12L, A13S, Q27H, S28G, T29S, S31T, S67F, L78M
notes: as for B1
Turning to B7, the “450 nm light absorption” value in the experiment with hOX40-EC-His [1] is 2.39 OD450; with hOX40-EC-His [2], 1.26 OD450. The “IgG ELISA (1:100)” value with hOX40-EC-His [4] is 2.3 OD650. In addition, in experiment [3], the “Y586 channel PE fluorescence value” was 187000.

B8: 21D2-3 (antibody, V domains shown)
VH: QVQLVESGGGLVKPGGSLRLSCAASGFTFSDYYMSWIRQAPGKGLEWVSYISSSGTTIYCADSVKGRFTISRDNAKNSLYLQMNSLRAEDTAVYYCARDSSTWYEGNYFDYWGQGTLVTVSS
VL: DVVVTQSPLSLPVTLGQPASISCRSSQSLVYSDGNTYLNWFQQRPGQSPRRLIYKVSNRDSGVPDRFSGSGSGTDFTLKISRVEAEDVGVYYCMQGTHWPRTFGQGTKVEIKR
notes: as for B1
For B8, the “450 nm light absorption” value is 2.03 OD450 with hOX40-EC-His [1] and 1.38 OD450 with hOX40-EC-His [2]. Besides, the “IgG ELISA (1:100)” value in the experiment with hOX40-EC-His [4] turned out to be 2.1 OD650. Besides, the “Y586 channel PE fluorescence value” in experiment [3] is 202000.

B9: 48D10-5 (antibody, V domains shown)
VH: QVQLVQSGAEVKKPGASMKVSCKASGYTFANFGINWVRQAPGQGLEWMGWISAYNGYTNYAQQFQGRITMTTDTSTSTAYMELRSLRSDDTAIYYCVIWFGELLSFDYWGQGTLVTVSS
VL: DIQMTQFPSSLSASVGDRVTITCRASQDISNYLAWFQQKPGKAPKSLIYAASSLQSGVPSKFSGNGFGTDFTFPLSRMQPEDFASSYCQQYNNYTFTFGRGTKVEIKR
notes: as for B1
With B9, the “450 nm light absorption” value in the experiment with hOX40-EC-His [1] turned out to be 2.45 OD450; with hOX40-EC-His [2] it was 2.35 OD450. For the same molecule, the “Y586 channel PE fluorescence value” in experiment [3] was 358000.

B10: 15A7-6 (antibody, V domains shown)
VH: QVQLQESGPGLVKPSGTLSLTCAVSGGSINSSSWWSWVRQPPGKGLEWIGEIYHSGDTNYNPSLKSRVAISVDKSKNQFSLKLSSVTAADTAVYYCARDQADYFGSGNYVYWGQGTLVTVSS
VL: EIVLMQYPGTLSLSSGERRVLSCRPSQSVSSSYLAWYQQKPGQAPRLLIYGASSRASGIPDRFSGSGSGTDFTLTISRLEPEDFAVYYCQQYGSLPITFGQGTRVEIKR
notes: as for B1
As to B10, the “450 nm light absorption” value turned out to be 2.25 OD450 with hOX40-EC-His [1] and 1.4 OD450 in the experiment with hOX40-EC-His [2]. Moreover, the “Y586 channel PE fluorescence value” in experiment [3] was found to be 181000.

B11: 24F8-7 (antibody, V domains shown)
VH: QVQLQESGPGLVKPSGTLSLTCAVSGGSISSYNWWSWVRQPPGKGLEWIGEIYHSGSTNYNPSLKSRVTISVDKSKNQFSLKLSSVTAADTAVYYCARDEDYYGSGNYYHWGQGTLVTVSS
VL: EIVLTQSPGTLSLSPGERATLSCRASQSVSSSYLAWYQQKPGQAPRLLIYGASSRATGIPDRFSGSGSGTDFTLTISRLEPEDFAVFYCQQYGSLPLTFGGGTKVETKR
notes: as for B1
Turning to B11, the entries for the “450 nm light absorption” value in the experiment with hOX40-EC-His [1] and with hOX40-EC-His [2] were 2.4 OD450 and 2.14 OD450, respectively. Also, the “Y586 channel PE fluorescence value” in experiment [3] was 437000.

B12: 18F11-4 (antibody, V domains shown)
VH: B11 VH
VL: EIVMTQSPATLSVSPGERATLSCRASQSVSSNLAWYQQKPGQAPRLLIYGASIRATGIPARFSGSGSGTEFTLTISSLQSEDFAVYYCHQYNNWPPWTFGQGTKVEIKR
notes: as for B1
Regarding B12, the “450 nm light absorption” value with hOX40-EC-His [1] came out at 1.87 OD450; with hOX40-EC-His [2], 1.32 OD450. Further, the “Y586 channel PE fluorescence value” in experiment [3] turned out to be 402000.

B13: 21F9-12 (antibody, V domains shown)
VH: B11 VH with S57N, V93M, E100Q, Y108F, H110Y
VL: not shown
notes: as for B1
In the case of B13, the “450 nm light absorption” value came to 2.37 OD450 with hOX40-EC-His [1] and 2 OD450 with hOX40-EC-His [2]. Also, in experiment [3], the “Y586 channel PE fluorescence value” came to 424000.

B14: 24F10-1 (antibody, V domains shown)
VH: QVQLQESGPGLVKPSGNLSLTCVVSGASIINNNWWTWVRQSPGKGLEWIGEIFHSGTTNYNPSLKNRVTISVDKAKNQFSLNLKSVTAADTAVYYCVAYVSGTYYNFDYWGQGTLVTVSS
VL: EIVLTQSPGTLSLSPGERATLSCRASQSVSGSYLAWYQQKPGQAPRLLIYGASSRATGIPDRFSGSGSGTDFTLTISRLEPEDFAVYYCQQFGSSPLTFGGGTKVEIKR
notes: as for B1
Take B14: the “450 nm light absorption” value with hOX40-EC-His [1] stood at 2.41 OD450; with hOX40-EC-His [2] it was 2.2 OD450. In addition, in experiment [3], the “Y586 channel PE fluorescence value” amounted to 274000.

B15: 24E10-4 (antibody, V domains shown)
VH: QVQMQESGPGLVKPSGTLSLTCAVSGGSISSSKWWSWVRQPPGKGLEWIGEIYHSGSTNYNPSLKSRVTISIDKSKNQFSLRLTSVTAADTAVYYCARGDVLLWFGGQGTLVTVSS
VL: EIVLTQSPGTLSLSPGERATLSCWASQSVSSTYLAWYQQKPGQAPRLLIYGASIRATGIPDRFSGSGSGTDFTLTISSLEPEDFAVYYCQQYGSSPITFGQGTRLEIKR
notes: as for B1
As for B15, the figures for the “450 nm light absorption” value in the experiment with hOX40-EC-His [1] and in the experiment with hOX40-EC-His [2] were 2.51 OD450 and 2.4 OD450, respectively. Further, the “Y586 channel PE fluorescence value” in experiment [3] came to 344000.

B16: 26C3-4 (antibody, V domains shown)
VH: B15 VH with M4L, A23D, K33N, I72V, F79V, R82K, T84N, V101I
VL: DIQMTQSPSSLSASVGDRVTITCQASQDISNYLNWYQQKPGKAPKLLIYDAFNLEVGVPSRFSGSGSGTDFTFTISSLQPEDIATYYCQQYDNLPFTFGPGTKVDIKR
notes: as for B1
Turning to B16, the “450 nm light absorption” value with hOX40-EC-His [1] was determined as 2.32 OD450; with hOX40-EC-His [2], 1.91 OD450. Besides, the “Y586 channel PE fluorescence value” in experiment [3] was found to be 416000.

B17: 17D5-11 (antibody, V domains shown)
VH: QVQLQESGPGLVKPSETLSLTCAVSGGSINSTNWWSWVRQPPGKGLEWIGEIYHSGSTNYNPSLKSRVTISVDKSKNQFSLKLSSVTAADTAVYYCARGGAVALDYWGQGTLVTVSS
VL: B15 VL with T10P, E17D, W24R, S28T, T32S, Q38L, S78R, S94N
notes: as for B1
Consider B17, for which the “450 nm light absorption” value worked out at 2.46 OD450 with hOX40-EC-His [1] and 2.32 OD450 in the experiment with hOX40-EC-His [2]. Besides, in experiment [3], the “Y586 channel PE fluorescence value” stood at 475000.

B18: 18F5-2 (antibody, V domains shown)
VH: B15 VH with T21I
VL: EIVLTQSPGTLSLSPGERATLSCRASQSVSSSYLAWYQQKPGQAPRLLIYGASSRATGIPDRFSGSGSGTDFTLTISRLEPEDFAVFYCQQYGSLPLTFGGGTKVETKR
notes: as for B1
As to B18, the figures for the “450 nm light absorption” value with hOX40-EC-His [1] and in the experiment with hOX40-EC-His [2] were 2.35 OD450 and 2.2 OD450, respectively. The “Y586 channel PE fluorescence value” in experiment [3] stood at 432000.
